Consider five substances from publication PMC10654636.

What all share (assay): BLI; biotinylated recombinant human FcγR loaded on SAX (streptavidin) biosensors, antibody in serial dilutions in solution; kinetic buffer 1% casein, 0.2% Tween20, 1x PBS pH 7.4; 30°C; Octet HTX; global fit, 1:1 Langmuir model
Background: BLI is a label-free optical method that tracks binding on a fibre tip over time.

Experiment [1] concerns the target human FcγRI (CD64), biotinylated recombinant protein (human) (UniProt P12314).
Experiment [2] deals with human FcγRIIIa V158 (CD16 V158), biotinylated recombinant protein (human).
The target in experiment [3] is human FcγRIIa R131 (CD32a R131), biotinylated recombinant protein (human).
The target of experiment [4] is human FcγRIIa H131 (CD32a H131), biotinylated recombinant protein (human) (UniProt P12318).
For experiment [5], the target named is human FcγRIIb (CD32b), biotinylated recombinant protein (human) (UniProt P31994).
The target of experiment [6] is human FcγRIIIa F158 (CD16 F158), biotinylated recombinant protein (human) (UniProt P08637).

Chain of nonfucosylated anti-TIGIT mAb, human IgG1 (SEA-TGT) (antibody; other documents disagree on this pair) (VH): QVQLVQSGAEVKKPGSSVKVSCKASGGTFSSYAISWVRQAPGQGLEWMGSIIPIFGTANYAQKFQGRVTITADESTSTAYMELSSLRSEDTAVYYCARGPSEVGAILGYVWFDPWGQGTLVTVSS
Chain of nonfucosylated anti-TIGIT mAb, human IgG1 (SEA-TGT) (antibody; other documents disagree on this pair) (VL): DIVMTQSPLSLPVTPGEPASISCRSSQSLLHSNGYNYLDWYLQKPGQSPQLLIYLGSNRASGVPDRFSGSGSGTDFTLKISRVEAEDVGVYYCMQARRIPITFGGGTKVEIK
Chain of nonfucosylated anti-TIGIT mAb, human IgG1 (SEA-TGT) (antibody) (VH): as the sequence (VH) above
Chain of nonfucosylated anti-TIGIT mAb, human IgG1 (SEA-TGT) (antibody) (VL): as the sequence (VL) above

Usually Kd stands for the concentration at which binding is half-saturated. With “Fc-muted anti-TIGIT mAb, human IgG1 L234A/L235A/P329G (LALA-TGT) (antibody; other documents disagree on this pair)”, the Kd in experiment [1] was found to be 25500 nM.
As for “nonfucosylated anti-TIGIT mAb, human IgG1 (SEA-TGT) (antibody)”, the results for the Kd in experiment [2] and in experiment [3] were 90 nM and 3640 nM, respectively.
“anti-TIGIT mAb, human IgG1 S239D/A330L/I332E (DLE-TGT) (antibody; other documents disagree on this pair)”: the Kd in experiment [4] worked out at 1620 nM; in experiment [5], 3130 nM.
In the case of “nonfucosylated anti-TIGIT mAb, human IgG1 (SEA-TGT) (antibody; other documents disagree on this pair)”, the Kd was determined as 3220 nM in experiment [4], 19100 nM in experiment [5], 1.9 nM in experiment [1] and 490 nM in experiment [6].
For “anti-TIGIT mAb, human IgG1 S239D/A330L/I332E (DLE-TGT) (antibody)”, the Kd stood at 60 nM in experiment [2] and 1560 nM in experiment [3].
